We go through 9 molecules from patent publication US20230192834A1.

Substitutions are numbered along the chain they refer to.

Assay [1] addresses T1, TGFβ2 (R&D Systems).
T1 sequence (P61812 303-414, species assumed, looked up): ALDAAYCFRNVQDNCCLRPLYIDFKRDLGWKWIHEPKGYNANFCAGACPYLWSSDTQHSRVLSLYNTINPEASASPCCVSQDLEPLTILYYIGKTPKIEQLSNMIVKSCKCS
As to the kind of experiment: SPR (Biacore T200), TGFβ amine-coupled to chip, 1:1 fit. For orientation: Surface plasmon resonance follows binding to a sensor surface in real time, without labels.

Assay [2] deals with TGFβ1 (R&D Systems). Described as above.
TGFβ1 (R&D Systems), sequence (P01137 279-390): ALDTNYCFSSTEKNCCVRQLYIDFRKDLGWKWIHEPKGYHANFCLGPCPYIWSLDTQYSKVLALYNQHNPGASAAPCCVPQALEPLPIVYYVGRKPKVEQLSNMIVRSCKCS
In assay [3] the target is T2, TGFβ3 (R&D Systems).
T2 sequence (P10600 301-412, species assumed, looked up): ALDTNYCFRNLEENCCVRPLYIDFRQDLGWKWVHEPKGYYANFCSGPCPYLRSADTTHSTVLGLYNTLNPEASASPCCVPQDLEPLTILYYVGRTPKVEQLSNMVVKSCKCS
Described as above.

Assay [4] has as its target T1, TGFβ2 (R&D Systems). As to the kind of experiment: cell-based or functional assay.
The target of assay [5] is TGFβ1 (R&D Systems). Put plainly: cell-based or functional assay.
Assay [6] addresses T2, TGFβ3 (R&D Systems). As to the kind of experiment: cell-based or functional assay.

B1: Felinized anti-TGFβ1,2,3 antibody VH3.2 - VL7 (antibody, V domains shown)
VH: DVQLVESGGDLVKPGGSLRLTCVASGYTFSSNVMHWVRQAPGKGLQWVAYVIPIVDIAYYADSVKGRFTISIDNSKNTLYLQMNSLKTEDTATYYCARTLGLVLDAMDYWGQGTLVTVSS
VL: DIVLTQPPSLSVNLGQTARITCRASQSLGSSYLAWYQQKPGQAPKLVTYGASSRAPGIPDRFSGTNSGITATLTISGARAEDEADYYCQQYADSPITFGQGTKLEIKR
As for B1, the values for the Kd with TGFβ2 (R&D Systems) [1], with TGFβ1 (R&D Systems) [2] and with TGFβ3 (R&D Systems) [3] were 0.589 nM, 0.857 nM and 0.434 nM, respectively. In the assay with TGFβ2 (R&D Systems) [4], this molecule registered a TGFb2 IC50 (SMAD3 phosphorylation in CMVICs, AlphaLISA) of 0.048 µg/mL. Moreover, the TGFb1 IC50 (SMAD3 phosphorylation in CMVICs, AlphaLISA) in the assay with TGFβ1 (R&D Systems) [5] worked out at 0.139 µg/mL. For the same molecule, the TGFb3 IC50 (SMAD3 phosphorylation in CMVICs, AlphaLISA) in the assay with TGFβ3 (R&D Systems) [6] was found to be 0.018 µg/mL.

B2: Felinized anti-TGFβ1,2,3 antibody VH3.2 - VL8 (antibody, V domains shown)
VH: B1 VH
VL: DIVMTQSPGSLAGSPGQQVTMNCRASQSLGSSYLAWYQQKPGQHPELLIYGASSRAPGVPDRFSGSGSGTDFTLTISNLQAEDVANYYCQQYADSPITFGQGTKLEIKR
As for B2, the Kd – broadly, a measure of binding affinity in units of concentration – in the assay with TGFβ2 (R&D Systems) [1] was 2.13 nM; with TGFβ1 (R&D Systems) [2], 0.971 nM; in the assay with TGFβ3 (R&D Systems) [3], 0.0466 nM. The molecule further yielded a TGFb2 IC50 (SMAD3 phosphorylation in CMVICs, AlphaLISA) in the assay with TGFβ2 (R&D Systems) [4] of 0.037 µg/mL. The same molecule showed a TGFb1 IC50 (SMAD3 phosphorylation in CMVICs, AlphaLISA) with TGFβ1 (R&D Systems) [5] of 0.072 µg/mL. Moreover, the TGFb3 IC50 (SMAD3 phosphorylation in CMVICs, AlphaLISA) with TGFβ3 (R&D Systems) [6] amounted to 0.008 µg/mL.

B3: Felinized anti-TGFβ1,2,3 antibody VH3.2 - VL1 (antibody, V domains shown)
VH: B1 VH
VL: ETVLTQSPGTLSLSPGERATLSCRASQSLGSSYLAWYQQKPGQAPRLLIYGASSRAPGIPDRFSGSGSGTDFTLTISRLEPEDFAVYYCQQYADSPITFGQGTKLEIKR
With B3, the Kd is 1.84 nM with TGFβ2 (R&D Systems) [1], 0.333 nM with TGFβ1 (R&D Systems) [2] and 0.0051 nM with TGFβ3 (R&D Systems) [3]. Moreover, the TGFb2 IC50 (SMAD3 phosphorylation in CMVICs, AlphaLISA) with TGFβ2 (R&D Systems) [4] amounted to 0.19 µg/mL. The molecule further came in with a TGFb1 IC50 (SMAD3 phosphorylation in CMVICs, AlphaLISA) in the assay with TGFβ1 (R&D Systems) [5] of 0.797 µg/mL. In the assay with TGFβ3 (R&D Systems) [6], this molecule yielded a TGFb3 IC50 (SMAD3 phosphorylation in CMVICs, AlphaLISA) of 0.053 µg/mL.

B4: Felinized anti-TGFβ1,2,3 antibody VH3.8 - VL7 (antibody, V domains shown)
VH: QVQLVQSGAEVKKPGSSVKVSCKASGYTFSSNVISWVRQAPGKGLQWVAGVIPIVDIANYAQRFKGRFTISIDNSKNTLYLQMNSLKTEDTATYYCASTLGLVLDAMDYWGQGTLVTVSS
VL: B1 VL
With B4, the Kd with TGFβ2 (R&D Systems) [1] turned out to be 1.94 nM; in the assay with TGFβ1 (R&D Systems) [2] it was 3.07 nM; with TGFβ3 (R&D Systems) [3], 0.635 nM. The same molecule showed a TGFb2 IC50 (SMAD3 phosphorylation in CMVICs, AlphaLISA) with TGFβ2 (R&D Systems) [4] of 2.67 µg/mL. Further, in the assay with TGFβ1 (R&D Systems) [5], the TGFb1 IC50 (SMAD3 phosphorylation in CMVICs, AlphaLISA) was determined as 1.36 µg/mL. In addition, the TGFb3 IC50 (SMAD3 phosphorylation in CMVICs, AlphaLISA) with TGFβ3 (R&D Systems) [6] is 0.204 µg/mL.

B5: Felinized anti-TGFβ1,2,3 antibody VH2.1 - VL3 (antibody, V domains shown)
VH: QVLLVQSGADVRKPGASVKIFCKASGYTFTSNVISWVRQTPAQGFEWMGGVIPIVDIANYAQRFKGRLVLTADTSTNTAYMELRSLKSADTAVYYCASTLGLVLDAMDYWGQGSLVTVSS
VL: EIQMTQSPSSLSASPGDRVTITCRASQSLGSSYLAWYQQKPGKVPKLLIYGASSRAPGVPSRFSGSGSGTDFTLTISSLEPEDAATYYCQQYADSPITFGQGTKLEIKR
As for B5, the Kd turned out to be 1.91 nM with TGFβ2 (R&D Systems) [1], 2.89 nM with TGFβ1 (R&D Systems) [2] and 2.6 nM with TGFβ3 (R&D Systems) [3]. In the assay with TGFβ2 (R&D Systems) [4], this molecule showed a TGFb2 IC50 (SMAD3 phosphorylation in CMVICs, AlphaLISA) of 0.277 µg/mL. In the assay with TGFβ1 (R&D Systems) [5], this molecule showed a TGFb1 IC50 (SMAD3 phosphorylation in CMVICs, AlphaLISA) of 0.597 µg/mL. Moreover, the TGFb3 IC50 (SMAD3 phosphorylation in CMVICs, AlphaLISA) with TGFβ3 (R&D Systems) [6] is 0.132 µg/mL.

B6: Felinized anti-TGFβ1,2,3 antibody VH3.2 - VL3 (antibody, V domains shown)
VH: B1 VH
VL: B5 VL
For the molecule B6, the Kd with TGFβ2 (R&D Systems) [1] was 0.751 nM; in the assay with TGFβ1 (R&D Systems) [2], 0.66 nM; with TGFβ3 (R&D Systems) [3] it was 0.144 nM. The TGFb2 IC50 (SMAD3 phosphorylation in CMVICs, AlphaLISA) with TGFβ2 (R&D Systems) [4] was 0.14 µg/mL. In the assay with TGFβ1 (R&D Systems) [5], this molecule registered a TGFb1 IC50 (SMAD3 phosphorylation in CMVICs, AlphaLISA) of 0.132 µg/mL. The same molecule gave a TGFb3 IC50 (SMAD3 phosphorylation in CMVICs, AlphaLISA) with TGFβ3 (R&D Systems) [6] of 0.023 µg/mL.

B7: Felinized anti-TGFβ1,2,3 antibody VH2.1 - VL8 (antibody, V domains shown)
VH: B5 VH
VL: B2 VL
Turning to B7, the Kd with TGFβ2 (R&D Systems) [1] came to 3.41 nM; with TGFβ1 (R&D Systems) [2], 3.31 nM; with TGFβ3 (R&D Systems) [3], 1.06 nM. In the assay with TGFβ2 (R&D Systems) [4], this molecule displayed a TGFb2 IC50 (SMAD3 phosphorylation in CMVICs, AlphaLISA) of 0.031 µg/mL. For the same molecule, the TGFb1 IC50 (SMAD3 phosphorylation in CMVICs, AlphaLISA) with TGFβ1 (R&D Systems) [5] amounted to 0.266 µg/mL. Besides, the TGFb3 IC50 (SMAD3 phosphorylation in CMVICs, AlphaLISA) with TGFβ3 (R&D Systems) [6] is 0.124 µg/mL.

B8: Felinized anti-TGFβ1,2,3 antibody VH6.1 - VL3 (antibody, V domains shown)
VH: QVLLVQSGAEVRTPGASVKIFCKASGYGFTSNVISWVRQSPAQGLEWMGGVIPIVDIANYAQRFKGRLTLTADTSTDTAYMELSSLRSADTAMYYCASTLGLVLDAMDYWGQGTLVTVSS
VL: B5 VL
Turning to B8, the results for the Kd with TGFβ2 (R&D Systems) [1], with TGFβ1 (R&D Systems) [2] and with TGFβ3 (R&D Systems) [3] were 2.99 nM, 3.54 nM and 3.57 nM, respectively. For the same molecule, the TGFb2 IC50 (SMAD3 phosphorylation in CMVICs, AlphaLISA) with TGFβ2 (R&D Systems) [4] was 0.223 µg/mL. In the assay with TGFβ1 (R&D Systems) [5], this molecule registered a TGFb1 IC50 (SMAD3 phosphorylation in CMVICs, AlphaLISA) of 0.425 µg/mL. This molecule gave a TGFb3 IC50 (SMAD3 phosphorylation in CMVICs, AlphaLISA) in the assay with TGFβ3 (R&D Systems) [6] of 0.014 µg/mL.

B9: Felinized anti-TGFβ1,2,3 antibody VH2.2 - VL7 (antibody, V domains shown)
VH: B5 VH with T30S, I34M, S35H, G50S, N59T, Q62R, K65Q, S98R
VL: B1 VL
Turning to B9, the equilibrium dissociation constant (Kd) was determined as 2.16 nM with TGFβ2 (R&D Systems) [1], 4.95 nM with TGFβ1 (R&D Systems) [2] and 3.52 nM with TGFβ3 (R&D Systems) [3]. The same molecule showed a TGFb2 IC50 (SMAD3 phosphorylation in CMVICs, AlphaLISA) in the assay with TGFβ2 (R&D Systems) [4] of 20.6 µg/mL. The TGFb1 IC50 (SMAD3 phosphorylation in CMVICs, AlphaLISA) in the assay with TGFβ1 (R&D Systems) [5] is 4.59 µg/mL. This molecule showed a TGFb3 IC50 (SMAD3 phosphorylation in CMVICs, AlphaLISA) with TGFβ3 (R&D Systems) [6] of 2.2 µg/mL.
